Laboratory results taken from paper PMC11087509, “Multimodal binding and inhibition of bacterial ribosomes by the antimicrobial peptides Api137 and Api88” (Nature Communications, 2024).
[ ]: non-standard residue; d: D form. Gu = N-terminal tetramethylguanidine; Orn = NCCC[C@H](N)C(=O)O

Tests used:
Test in all cases: fluorescence polarisation; cf-labeled peptide (10 µL of 40 nmol/L) added to a 2-fold dilution series (22 steps, 10 µL) of pure 70S ribosome, 50S or 30S subunit; ribosome preparation buffer (20 mmol/L HEPES-KOH, 6 mmol/L MgCl2, 30 mmol/L NH4Cl, pH 7.6); 28 ± 1 °C, 90 min; apparent Kd (average over at least two or three sites)
Conditions in all cases: both partners purified
[1] = target: purified E. coli 30S ribosomal subunit (E. coli (endogenous in MRE600))
[2] = target: purified E. coli 50S ribosomal subunit (E. coli (endogenous in MRE600), UniProt P60723 1-201; P61175 1-110; P0ADZ0 1-100; P0A7M6 1-63; P0A7J3 1-165)
[3] = target: purified E. coli 70S ribosome (E. coli (endogenous in BW25113), UniProt P60723 1-201; P61175 1-110; P0ADZ0 1-100; P0A7M6 1-63; P0A7J3 1-165)

Binder: Gu-[Orn](5(6)‑carboxyfluorescein)NNRPVYIPRPRPPHPRL-NH2 [cf-Api88 (5(6)-carboxyfluorescein-labeled Api88, Gu-ONNRPVYIPRPRPPHPRL-NH2)]
- fold weaker binding than to the 50S subunit [1]: ~23 fold
- Kd [2]: 600 nM
- Kd [3]: 1.8 µM

Binder: Gu-[Orn](5(6)‑carboxyfluorescein)NNRPVYIPRPRPPHPRL-OH [cf-Api137 (5(6)-carboxyfluorescein-labeled Api137, Gu-ONNRPVYIPRPRPPHPRL-OH)]
- fold weaker binding than to the 50S subunit [1]: ~10 fold
- Kd [2]: 2200 nM
- Kd [3]: 4.73 µM
